T1: Antigenic site II synthetic peptide of RSV F (254-278) (Human respiratory syncytial virus A, …)
T1 construct: RSV F antigenic site II, residues 254-278; also called Site II peptide; full-length peptide; source: synthetic peptide (Peptide 2.0)
T1 chain: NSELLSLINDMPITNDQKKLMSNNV

T2: Antigenic site II peptide 259-273 (Human respiratory syncytial virus A (A2 …))
T2 construct: RSV F antigenic site II, residues 259-273; source: synthetic peptide (Peptide 2.0)
T2 chain: SLINDMPITNDQKKL

T3: Antigenic site II peptide 264-278 (Human respiratory syncytial virus A (A2 …))
T3 construct: RSV F antigenic site II, residues 264-278; source: synthetic peptide (Peptide 2.0)
T3 chain: MPITNDQKKLMSNNV

T4: Antigenic site II peptide 254-273 (human respiratory syncytial virus)
T4 construct: RSV F antigenic site II, residues 254-273; source: synthetic peptide (Peptide 2.0)
T4 chain: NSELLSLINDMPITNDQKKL

T5: Antigenic site II peptide 254-268 (Human respiratory syncytial virus A (A2 …))
T5 construct: RSV F antigenic site II, residues 254-268; source: synthetic peptide (Peptide 2.0)
T5 chain: NSELLSLINDMPITN

T6: Antigenic site II peptide 260-278 (Human respiratory syncytial virus A (A2 …))
T6 construct: RSV F antigenic site II, residues 260-278; source: synthetic peptide (Peptide 2.0)
T6 chain: LINDMPITNDQKKLMSNNV


How the values were obtained:
Conditions in all cases: both partners purified
[1] = target: T7, Post-fusion F (Human respiratory syncytial virus A, …, stabilised); assay: SPR; Biacore T200; mAb (2 ug/mL) captured on protein A or protein G amine-coupled to a CM5 chip; RSV F injected at 3.3, 10, 30, 90 nM, 180 s association, 600 s dissociation; 1:1 fit; apparent KD = kd/ka
T7 construct: Fusion (F) glycoprotein of human RSV/A2 from residue 26, TM/CT domains replaced with a C-terminal 6-histidine tag; Expressed with a gp64 signal peptide; also called post-fusion RSV F; post-fusion trimer; source: Sf9, baculovirus-infected, culture supernatant, purified (IMAC, ion exchange)

[2] = target: T8, Pre-fusion F (Human respiratory syncytial virus A, …, UniProt P03420, stabilised); assay: as above
T8 construct: Fusion (F) glycoprotein F0 of human RSV/A2, residues 26-574, intact TM/CT; mutant furin site I, p27 region deleted, fusion peptide deletion, three stabilizing substitutions; Expressed with a gp64 signal peptide; also called pre-fusion RSV F; pre-fusion trimer; source: Sf9, baculovirus-infected, extracted from cell pellets, purified

[3] = target: T1, Antigenic site II synthetic peptide of …; assay: SPR; Biacore T200; mAb (2 ug/mL, 90 s) captured on protein A or protein G on a CM5 chip; site II peptides injected at 100, 200, 400, 800 nM, 180 s, then 600 s buffer; 1:1 fit; apparent KD = kd/ka
[4] = target: T2, Antigenic site II peptide 259-273; assay: as above
[5] = target: T3, Antigenic site II peptide 264-278; assay: as above
[6] = target: T4, Antigenic site II peptide 254-273; assay: as above
[7] = target: T5, Antigenic site II peptide 254-268; assay: as above
[8] = target: T6, Antigenic site II peptide 260-278; assay: as above

Row | Binder | Kd [1] [nM] | binding result [2] | Kd [3] [nM] | binding result [4] | Kd [5] [nM] | binding result [6] | binding result [7] | Kd [8] [nM]
1 | R4.C6 monoclonal antibody (antibody, V domains shown, mouse IgG2a; mouse kappa; Only the Fv was modelled in 6CXC; also called mAb R4.C6; source: mouse hybridoma (BALB/c immunized with RSV F NP), serum free medium, purified (protein-G)) VH: EVQLQQSGPELVKPGASVKISCKASGYAFSNSWMSWVKQRPGKGLEWIGRLFPADGDITYNGHFKDKAALTADKSSNTAYIQLSSLTSEDSAVYFCARMDNSEVFWGQGTLVTVSA VL: DILLTQSQKFMSTSVGDRVSITCKASQNVRTGVSWYQRKPGQSPKALIYLASNRHTGVPDRFTGRGSGTDFTLTISEVQSEDLADYFCLQHWTVPYTFGGGTKLEIK | 0.34 | binds | 12.5 | no binding (tested: 800 nM) | 110 | no binding (tested: 800 nM) | no binding (tested: 800 nM) | 84.2
2 | Motavizumab (antibody, V domains shown, IgG1; kappa; also called motatvizumab; source: obtained from National Institute of Standards and Technology) VH: QVTLRESGPALVKPTQTLTLTCTFSGFSLSTAGMSVGWIRQPPGKALEWLADIWWDDKKHYNPSLKDRLTISKDTSKNQVVLKVTNMDPADTATYYCARDMIFNFYFDVWGQGTTVTVSS VL: DIQMTQSPSTLSASVGDRVTITCSASSRVGYMHWYQQKPGKAPKLLIYDTSKLASGVPSRFSGSGSGTEFTLTISSLQPDDFATYYCFQGSGYPFTFGGGTKVEIK |  | binds | 26.7 |  |  |  |  | 

From publication PMC6366758, “Structure basis of neutralization by a novel site II/IV antibody against respiratory syncytial virus fusion protein” (PLoS ONE, 2019)
